The values below come from article PMC9638933.

One data set deals with T1, Kucore (Mycobacterium tuberculosis, UniProt P9WKD9 1-238).
T1 sequence: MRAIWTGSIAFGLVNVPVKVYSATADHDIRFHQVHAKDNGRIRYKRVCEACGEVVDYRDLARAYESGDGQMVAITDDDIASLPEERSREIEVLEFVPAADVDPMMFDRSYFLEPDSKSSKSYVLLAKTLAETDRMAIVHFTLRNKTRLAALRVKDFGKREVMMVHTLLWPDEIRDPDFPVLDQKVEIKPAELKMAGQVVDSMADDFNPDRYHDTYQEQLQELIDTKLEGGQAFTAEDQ
Kind of data set: EMSA; 5 mM Mg2+; EMSA: 50 mM Tris-HCl pH 8.0, 50 mM NaCl, 1 mM DTT, 5 mM MgCl2, 4% glycerol, 0.025 mg/ml BSA, 10 nM DNA, 30 C 20 min; FP: 10 mM Tris-HCl pH 8, 10 mM NaCl, 10% glycerol, 1 mM TCEP, 50 nM DNA, 30 C; ternary EMSA: 20 mM Tris-HCl pH 8.0, 5 mM MgCl2, 5% glycerol, 37 C; bridging: 20 mM Tris-HCl pH 7.5, 50 mM KCl, 5 mM EDTA, 1 mM DTT, 5% glycerol, 40 ug/ml BSA, room temperature. Conditions: protein: recombinant; tags: His (Ni-NTA purified; pMCSG7); chain copies: 2; label: 5' 6-FAM on strand 1; blunt.

A further data set addresses T2, Kumin (Mycobacterium tuberculosis, UniProt P9WKD9 1-259).
T2 sequence: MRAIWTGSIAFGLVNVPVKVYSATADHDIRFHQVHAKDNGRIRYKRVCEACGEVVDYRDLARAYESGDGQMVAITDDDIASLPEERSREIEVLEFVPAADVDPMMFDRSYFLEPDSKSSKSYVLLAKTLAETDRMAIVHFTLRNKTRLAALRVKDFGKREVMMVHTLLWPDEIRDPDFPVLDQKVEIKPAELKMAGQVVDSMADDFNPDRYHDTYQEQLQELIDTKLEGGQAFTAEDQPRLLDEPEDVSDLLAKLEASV
The description is as above. Conditions: protein: recombinant; tags: His (Ni-NTA purified; pMCSG7); chain copies: 2; label: 5' 6-FAM on strand 1; blunt.

For the next data set, the target named is Kucore;LigD (Mycobacterium …, UniProt P9WKD9;P9WNV3 1-238;1-759, |). Kind of data set: EMSA; 10 uM Ku, 1 uM LigD; supershift; EMSA: 50 mM Tris-HCl pH 8.0, 50 mM NaCl, 1 mM DTT, 5 mM MgCl2, 4% glycerol, 0.025 mg/ml BSA, 10 nM DNA, 30 C 20 min; FP: 10 mM Tris-HCl pH 8, 10 mM NaCl, 10% glycerol, 1 mM TCEP, 50 nM DNA, 30 C; ternary EMSA: 20 mM Tris-HCl pH 8.0, 5 mM MgCl2, 5% glycerol, 37 C; bridging: 20 mM Tris-HCl pH 7.5, 50 mM KCl, 5 mM EDTA, 1 mM DTT, 5% glycerol, 40 ug/ml BSA, room temperature. The settings on record: protein: recombinant;recombinant; tags: His (Ni-NTA purified; pMCSG7);His (Ni-NTA purified; pMCSG7); chain copies: 2;1; label: 5' 6-FAM on strand 1; blunt. In general terms: In EMSA bound probe runs differently from free probe, usually more slowly.
Kucore;LigD, sequence (P9WNV3 whole entry, chain 2 of 2, one chain of several): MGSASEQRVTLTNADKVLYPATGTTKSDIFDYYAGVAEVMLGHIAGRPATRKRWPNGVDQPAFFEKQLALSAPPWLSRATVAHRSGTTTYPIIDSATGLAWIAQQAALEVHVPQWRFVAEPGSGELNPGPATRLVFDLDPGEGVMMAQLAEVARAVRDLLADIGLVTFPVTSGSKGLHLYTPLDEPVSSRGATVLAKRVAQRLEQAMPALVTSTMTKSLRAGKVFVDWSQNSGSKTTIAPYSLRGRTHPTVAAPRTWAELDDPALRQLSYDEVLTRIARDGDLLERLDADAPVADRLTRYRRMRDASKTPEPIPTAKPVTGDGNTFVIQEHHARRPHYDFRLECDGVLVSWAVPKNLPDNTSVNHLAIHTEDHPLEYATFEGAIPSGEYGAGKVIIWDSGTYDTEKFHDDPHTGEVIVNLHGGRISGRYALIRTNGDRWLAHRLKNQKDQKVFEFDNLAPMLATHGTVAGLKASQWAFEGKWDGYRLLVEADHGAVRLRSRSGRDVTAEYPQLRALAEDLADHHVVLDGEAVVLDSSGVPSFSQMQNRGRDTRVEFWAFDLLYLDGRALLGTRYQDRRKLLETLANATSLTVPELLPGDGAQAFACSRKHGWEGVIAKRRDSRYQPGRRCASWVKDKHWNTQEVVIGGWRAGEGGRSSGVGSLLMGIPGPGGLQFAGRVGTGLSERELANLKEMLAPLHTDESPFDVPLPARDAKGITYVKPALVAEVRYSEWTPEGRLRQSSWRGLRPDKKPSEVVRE

The target of a further data set is KuWT;LigD (Mycobacterium …, UniProt P9WKD9;P9WNV3 1-273;1-759, |). The data set is described as above. The settings on record: protein: recombinant;recombinant; tags: His (Ni-NTA purified; pMCSG7);His (Ni-NTA purified; pMCSG7); chain copies: 2;1; label: 5' 6-FAM on strand 1; blunt.
KuWT;LigD, sequence (P9WKD9 whole entry, chain 1 of 2): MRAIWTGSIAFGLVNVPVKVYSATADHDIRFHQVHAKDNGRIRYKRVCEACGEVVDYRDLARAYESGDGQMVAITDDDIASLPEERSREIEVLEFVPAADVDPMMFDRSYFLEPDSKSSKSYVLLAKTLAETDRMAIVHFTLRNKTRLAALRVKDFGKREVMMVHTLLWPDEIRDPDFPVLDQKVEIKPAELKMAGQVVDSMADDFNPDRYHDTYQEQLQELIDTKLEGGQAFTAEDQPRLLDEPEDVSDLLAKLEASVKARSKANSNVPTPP
KuWT;LigD, sequence (P9WNV3 whole entry, chain 2 of 2): as the sequence (P9WNV3 whole entry, chain 2 of 2, one chain of several) above
In a further data set the target is Kumin;LigD (Mycobacterium …, UniProt P9WKD9;P9WNV3 1-259;1-759, |). The description is as above. The settings on record: protein: recombinant;recombinant; tags: His (Ni-NTA purified; pMCSG7);His (Ni-NTA purified; pMCSG7); chain copies: 2;1; label: 5' 6-FAM on strand 1; blunt.
Kumin;LigD, sequence (P9WNV3 whole entry, chain 2 of 2, one chain of several): as above

B1: 40 bp dsDNA (dsDNA)
DNA 1: CAGGGTAAGTGTGGAGGTGTAGGGAAGGGAATGTTGTCTG
DNA 2: CAGACAACATTCCCTTCCCTACACCTCCACACTTACCCTG
Regarding B1, the values for the Kd in the data set with Kucore and in the data set with Kumin were 70 ± 10 nM and 460 ± 80 nM, respectively. Further, the binding result with Kucore;LigD, with KuWT;LigD and with Kumin;LigD was “binds” in each case.
